Measurements as given in paper PMC9606215.

Columns and labels:
complement C3b [1] = target: complement C3b (UniProt P01024); experiment: SPR; proenzyme C3bB formation: C3b amine-coupled to a CM5 chip; CFB flowed at 0.125-4.0 uM, 30 ul/min; 10 mM HEPES pH 7.4, 50 mM NaCl, 3 mM MgCl2, 0.005% surfactant P20; without CFD; Biacore
complement C3b [2] = target: complement C3b (UniProt P01024); experiment: SPR; C3b amine-coupled to a CM5 chip; CFB flowed at 0.125-4.0 μM, 30 μl/min; 10 mM HEPES pH 7.4, 50 mM NaCl, 3 mM MgCl2, 0.005% surfactant P20; without CFD (proenzyme C3bB formation); two state interaction model
complement C3b [3] = target: complement C3b (UniProt P01024); experiment: SPR; C3b amine-coupled to a CM5 chip; CFB as analyte at 1.0-4.0 μM in 10 mM HEPES pH 7.4, 50 mM NaCl, 3 mM MgCl2, 1 mM CFD, 0.005% surfactant P20 (activated C3 convertase C3bBb formation); two state interaction model
complement C3b [4] = target: complement C3b (UniProt P01024); experiment: SPR; activated C3 convertase C3bBb formation: C3b amine-coupled to a CM5 chip; CFB flowed at 1.0-4.0 uM with complement factor D (1 mM [sic] CFD); 10 mM HEPES pH 7.4, 50 mM NaCl, 3 mM MgCl2, 0.005% surfactant P20; Biacore

Substance: complement factor B, R32W variant (32W) (from UniProt P00751 26-764) (natural protein)
- koff (complement C3b [1]): 0.015 s⁻¹
- kon (complement C3b [1]): 6700 M⁻¹ s⁻¹
- Kd (complement C3b [2]): 2250 nM
- Kd (complement C3b [3]): 318 nM
- koff (complement C3b [4]): 0.00236 s⁻¹
- kon (complement C3b [4]): 7420 M⁻¹ s⁻¹

Substance: complement factor B, wild type (32R) (from UniProt P00751 26-764) (natural protein)
- Kd (complement C3b [1]): 608 nM
- koff (complement C3b [1]): 0.0088 s⁻¹
- kon (complement C3b [1]): 14500 M⁻¹ s⁻¹
- Kd (complement C3b [2]): 610 nM
- Kd (complement C3b [3]): 77.3 nM
- koff (complement C3b [4]): 0.00247 s⁻¹
- kon (complement C3b [4]): 32000 M⁻¹ s⁻¹
